{
  "source": "patent US20220251595A1",
  "about": "“ENGINEERED ATRLP23 PATTERN RECOGNITION RECEPTORS AND METHODS OF USE” (priority 2019, published 2022)",
  "molecules": {"B1": {"name": "AtRLP23-AtEFR-3×FLAG: AtRLP23 apoplastic and eJM domains, AtEFR TM and cytoplasmic domains, 3×FLAG; SEQ ID NO: 17, 18 (protein)", "chain": "MSKALLHLHFLSLFLLCCVCHSSIFTLNFHFTGIVACRPHQIQAFTKFTNEFDTRGCNNSDTFNGVWCDNSTGAVAVLQLRKCLSGTLKSNSSLFGFHQLRYVDLQNNNLTSSSLPSGFGNLKRLEGLFLSSNGFLGQVPSSFSNLTMLAQLDLSYNKLTGSFPLVRGLRKLIVLDLSYNHFSGTLNPNSSLFELHQLRYLNLAFNNFSSSLPSKFGNLHRLENLILSSNGFSGQVPSTISNLTRLTKLYLDQNKLTSSFPLVQNLTNLYELDLSYNKFFGVIPSSLLTLPFLAHLALRENNLAGSVEVSNSSTSSRLEIMYLGSNHFEGQILEPISKLINLKHLDLSFLNTSYPIDLKLFSSLKSLRSLDLSGNSISSASLSSDSYIPLTLEMLTLRHCDINEFPNILKTLKELVYIDISNNRMKGKIPEWLWSLPLLQSVTLGNNYFTGFQGSAEILVNSSVLLLYLDSNNFEGALPDLPLSIKGFGVASNSFTSEIPLSICNRSSLAAIDLSYNNFTGPIPPCLRNLELVYLRNNNLEGSIPDALCDGASLRTLDVSHNRLTGKLPRSFVNCSSLKFLSVINNRIEDTFPFWLKALPNLQVLTLRSNRFYGPISPPHQGPLGFPELRIFEISDNKFTGSLPPNYFVNWKASSRTMNQDGGLYMVYEEKLFDEGGYGYTDALDLQYKGLHMEQAKALTSYAAIDFSGNRLEGQIPESIGLLKALIAVNISNNAFTGHIPLSMANLENLESLDMSRNQLSGTIPNGLGSISFLAYINVSHNQLTGEIPQGTQITGQSKSSFEGNAGLCGLPLKESCFGTGAPPMYHQKQEDKEEEEEEEEEEEEVLNGRVVSGICIGIASLLLIIIVASLCWFMKRKKKNNASDGNPSDSTTLGMFHEKVSYEELHSATSRFSSTNLIGSGNFGNVFKGLLGPENKLVAVKVLNLLKHGATKSFMAECETFKGIRHRNLVKLITVCSSLDSEGNDFRALVYEFMPKGSLDMWLQLEDLERVNDHSRSLTPAEKLNIAIDVASALEYLHVHCHDPVAHCDIKPSNILLDDDLTAHVSDFGLAQLLYKYDRESFLNQFSSAGVRGTIGYAAPEYGMGGQPSIQGDVYSFGILLLEMFSGKKPTDESFAGDYNLHSYTKSILSGCTSSGGSNAIDEGLRLVLQVGIKCSEEYPRDRMRTDEAVRELISIRSKFFSSKTTITESPRDAPQSSPQEWMLNTDMHTMASDYKDHDGDYKDHDLDAAAADYKDDDDK", "modifications": "Fusion protein"}, "B2": {"name": "AtRLP23-AtSOBIR1-3×FLAG: AtRLP23 apoplastic and eJM domains, AtSOBIR1 TM and cytoplasmic domains, 3×FLAG; SEQ ID NO: 29, 30 (protein)", "chain": "MSKALLHLHFLSLFLLCCVCHSSIFTLNFHFTGIVACRPHQIQAFTKFTNEFDTRGCNNSDTFNGVWCDNSTGAVAVLQLRKCLSGTLKSNSSLFGFHQLRYVDLQNNNLTSSSLPSGFGNLKRLEGLFLSSNGFLGQVPSSFSNLTMLAQLDLSYNKLTGSFPLVRGLRKLIVLDLSYNHFSGTLNPNSSLFELHQLRYLNLAFNNFSSSLPSKFGNLHRLENLILSSNGFSGQVPSTISNLTRLTKLYLDQNKLTSSFPLVQNLTNLYELDLSYNKFFGVIPSSLLTLPFLAHLALRENNLAGSVEVSNSSTSSRLEIMYLGSNHFEGQILEPISKLINLKHLDLSFLNTSYPIDLKLFSSLKSLRSLDLSGNSISSASLSSDSYIPLTLEMLTLRHCDINEFPNILKTLKELVYIDISNNRMKGKIPEWLWSLPLLQSVTLGNNYFTGFQGSAEILVNSSVLLLYLDSNNFEGALPDLPLSIKGFGVASNSFTSEIPLSICNRSSLAAIDLSYNNFTGPIPPCLRNLELVYLRNNNLEGSIPDALCDGASLRTLDVSHNRLTGKLPRSFVNCSSLKFLSVINNRIEDTFPFWLKALPNLQVLTLRSNRFYGPISPPHQGPLGFPELRIFEISDNKFTGSLPPNYFVNWKASSRTMNQDGGLYMVYEEKLFDEGGYGYTDALDLQYKGLHMEQAKALTSYAAIDFSGNRLEGQIPESIGLLKALIAVNISNNAFTGHIPLSMANLENLESLDMSRNQLSGTIPNGLGSISFLAYINVSHNQLTGEIPQGTQITGQSKSSFEGNAGLCGLPLKESCFGTGAPPMYHQKQEDKEEEEEEEEEEEEVLNGRVAAWILGFVVGAIGGTISGFVFSVLFKLIIQAIRGSEKPPGPSIFSPLIKKAEDLAFLENEEALASLEIIGRGGCGEVFKAELPGSNGKIIAVKKVIQPPKDADELTDEDSKFLNKKMRQIRSEINTVGHIRHRNLLPLLAHVSRPECHYLVYEYMEKGSLQDILTDVQAGNQELMWPARHKIALGIAAGLEYLHMDHNPRIIHRDLKPANVLLDDDMEARISDFGLAKAMPDAVTHITTSHVAGTVGYIAPEFYQTHKFTDKCDIYSFGVILGILVIGKLPSDEFFQHTDEMSLIKWMRNIITSENPSLAIDPKLMDQGFDEQMLLVLKIACYCTLDDPKQRPNSKDVRTMLSQIKHSDYKDHDGDYKDHDLDAAAADYKDDDDK", "modifications": "Fusion protein"}, "B3": {"name": "AtRLP23-OsXA21-3×FLAG: AtRLP23 apoplastic and eJM domains, OsXA21 TM and cytoplasmic domains, 3×FLAG; SEQ ID NO: 21, 22 (protein)", "chain": "MSKALLHLHFLSLFLLCCVCHSSIFTLNFHFTGIVACRPHQIQAFTKFTNEFDTRGCNNSDTFNGVWCDNSTGAVAVLQLRKCLSGTLKSNSSLFGFHQLRYVDLQNNNLTSSSLPSGFGNLKRLEGLFLSSNGFLGQVPSSFSNLTMLAQLDLSYNKLTGSFPLVRGLRKLIVLDLSYNHFSGTLNPNSSLFELHQLRYLNLAFNNFSSSLPSKFGNLHRLENLILSSNGFSGQVPSTISNLTRLTKLYLDQNKLTSSFPLVQNLTNLYELDLSYNKFFGVIPSSLLTLPFLAHLALRENNLAGSVEVSNSSTSSRLEIMYLGSNHFEGQILEPISKLINLKHLDLSFLNTSYPIDLKLFSSLKSLRSLDLSGNSISSASLSSDSYIPLTLEMLTLRHCDINEFPNILKTLKELVYIDISNNRMKGKIPEWLWSLPLLQSVTLGNNYFTGFQGSAEILVNSSVLLLYLDSNNFEGALPDLPLSIKGFGVASNSFTSEIPLSICNRSSLAAIDLSYNNFTGPIPPCLRNLELVYLRNNNLEGSIPDALCDGASLRTLDVSHNRLTGKLPRSFVNCSSLKFLSVINNRIEDTFPFWLKALPNLQVLTLRSNRFYGPISPPHQGPLGFPELRIFEISDNKFTGSLPPNYFVNWKASSRTMNQDGGLYMVYEEKLFDEGGYGYTDALDLQYKGLHMEQAKALTSYAAIDFSGNRLEGQIPESIGLLKALIAVNISNNAFTGHIPLSMANLENLESLDMSRNQLSGTIPNGLGSISFLAYINVSHNQLTGEIPQGTQITGQSKSSFEGNAGLCGLPLKESCFGTGAPPMYHQKQEDKEEEEEEEEEEEEVLNGRFPVLPISVSLAAALAILSSLYLLITWHKRTKKGAPSRTSMKGHPLVSYSQLVKATDGFAPTNLLGSGSFGSVYKGKLNIQDHVAVKVLKLENPKALKSFTAECEALRNMRHRNLVKIVTICSSIDNRGNDFKAIVYDFMPNGSLEDWIHPETNDQADQRHLNLHRRVTILLDVACALDYLHRHGPEPVVHCDIKSSNVLLDSDMVAHVGDFGLARILVDGTSLIQQSTSSMGFIGTIGYAAPEYGVGLIASTHGDIYSYGILVLEIVTGKRPTDSTFRPDLGLRQYVELGLHGRVTDVVDTKLILDSENWLNSTNNSPCRRITECIVWLLRLGLSCSQELPSSRTPTGDIIDELNAIKQNLSGLFPVCEGGSLEFSDYKDHDGDYKDHDLDAAAADYKDDDDK", "modifications": "Fusion protein"}, "B4": {"name": "AtRLP23+TM-AtEFR-3×FLAG: AtRLP23 apoplastic, eJM and TM domains, AtEFR cytoplasmic domain, 3×FLAG; SEQ ID NO: 33, 34 (protein)", "chain": "MSKALLHLHFLSLFLLCCVCHSSIFTLNFHFTGIVACRPHQIQAFTKFTNEFDTRGCNNSDTFNGVWCDNSTGAVAVLQLRKCLSGTLKSNSSLFGFHQLRYVDLQNNNLTSSSLPSGFGNLKRLEGLFLSSNGFLGQVPSSFSNLTMLAQLDLSYNKLTGSFPLVRGLRKLIVLDLSYNHFSGTLNPNSSLFELHQLRYLNLAFNNFSSSLPSKFGNLHRLENLILSSNGFSGQVPSTISNLTRLTKLYLDQNKLTSSFPLVQNLTNLYELDLSYNKFFGVIPSSLLTLPFLAHLALRENNLAGSVEVSNSSTSSRLEIMYLGSNHFEGQILEPISKLINLKHLDLSFLNTSYPIDLKLFSSLKSLRSLDLSGNSISSASLSSDSYIPLTLEMLTLRHCDINEFPNILKTLKELVYIDISNNRMKGKIPEWLWSLPLLQSVTLGNNYFTGFQGSAEILVNSSVLLLYLDSNNFEGALPDLPLSIKGFGVASNSFTSEIPLSICNRSSLAAIDLSYNNFTGPIPPCLRNLELVYLRNNNLEGSIPDALCDGASLRTLDVSHNRLTGKLPRSFVNCSSLKFLSVINNRIEDTFPFWLKALPNLQVLTLRSNRFYGPISPPHQGPLGFPELRIFEISDNKFTGSLPPNYFVNWKASSRTMNQDGGLYMVYEEKLFDEGGYGYTDALDLQYKGLHMEQAKALTSYAAIDFSGNRLEGQIPESIGLLKALIAVNISNNAFTGHIPLSMANLENLESLDMSRNQLSGTIPNGLGSISFLAYINVSHNQLTGEIPQGTQITGQSKSSFEGNAGLCGLPLKESCFGTGAPPMYHQKQEDKEEEEEEEEEEEEVLNGRAVAIGYGSGLLLGLAIAQVIASYKRKKKNNASDGNPSDSTTLGMFHEKVSYEELHSATSRFSSTNLIGSGNFGNVFKGLLGPENKLVAVKVLNLLKHGATKSFMAECETFKGIRHRNLVKLITVCSSLDSEGNDFRALVYEFMPKGSLDMWLQLEDLERVNDHSRSLTPAEKLNIAIDVASALEYLHVHCHDPVAHCDIKPSNILLDDDLTAHVSDFGLAQLLYKYDRESFLNQFSSAGVRGTIGYAAPEYGMGGQPSIQGDVYSFGILLLEMFSGKKPTDESFAGDYNLHSYTKSILSGCTSSGGSNAIDEGLRLVLQVGIKCSEEYPRDRMRTDEAVRELISIRSKFFSSKTTITESPRDAPQSSPQEWMLNTDMHTMASDYKDHDGDYKDHDLDAAAADYKDDDDK", "modifications": "Fusion protein"}},
  "data": [
    {"tested_on": "corn protoplasts", "assay": "Calcium burst in transiently transfected corn protoplasts, R-GECO1.2 fluorescence reporter", "assay_type": "cell-based, Zea mays", "conditions": "Example 3, FIG. 4; 1 μM PpNLP20; 40 minutes; 384-well", "from_the_text": "Following ligand (also known as elicitor) binding, PRRs are activated and induce a transient increase of cytosolic Ca^2+ concentration as part of a PTI response. […] In a high-throughput method, the kinetics of PRR-dependent transient variation of cytosolic Ca^2+ concentration can be measured with a fluorimeter or luminometer and in microplate formats of 96 or 384 wells.\nFluorescence was monitored using a fluorimeter equipped with a 100 Hz xenon flash lamp with excitation at 556 nm and emission measured at 585 nm for 100 ms, every 22.6 seconds for 42 minutes.\nAll of the AtRLP23 constructs have an operably linked 2×35S+Ω promoter construct (SEQ ID NO: 72) and an operably linked rbcS terminator (SEQ ID NO: 73)\nFluorescence was monitored using a fluorimeter equipped with a 100 Hz xenon flash lamp with excitation at 556 nm and emission measured at 585 nm for 30 ms, every 20.2 seconds for 40 minutes. For each fluorescence measurement, the transient change in R-GECO1.2 fluorescence (ΔF) are calculated from background corrected intensity values as (F-Fo), where F represents the average fluorescence intensity of the a batch of protoplasts treated with elicitor, and Fo represents the average fluorescence intensity of the same batch of protoplasts treated with a control solution that lacks the elicitor but is otherwise identical or essentially identical in composition to the solution comprising the elicitor.", "values": [
      {"molecule": "B1", "responsiveness to PpNLP20 treatment compared to AtRLP23-3×FLAG (total transient increase of fluorescence)": "increased responsiveness"},
      {"molecule": "B2", "responsiveness to PpNLP20 treatment compared to AtRLP23-3×FLAG (total transient increase of fluorescence)": "reduced responsiveness"},
      {"molecule": "B3", "responsiveness to PpNLP20 treatment compared to AtRLP23-3×FLAG (total transient increase of fluorescence)": "increased responsiveness"},
      {"molecule": "B4", "responsiveness to PpNLP20 treatment compared to AtRLP23-3×FLAG (total transient increase of fluorescence)": "comparable responsiveness"}
    ]}
  ]
}
